Patent US20150266954A1
One block for each substance: values may come before it.

Key:
[1] = biological target: cynomolgus monkey IL-21 (cynomolgus monkey); experiment: cell-based or functional assay
rabbit IL-21 (rabbit) = experiment: cell-based or functional assay
mouse IL-21 (mouse) = mouse IL-21 (mouse) (UniProt Q9ES17); experiment: cell-based or functional assay
human IL-21 (human) [2] = biological target: human IL-21 (human) (UniProt Q9HBE4); experiment: cell-based or functional assay
human IL-21 (human) [3] = biological target: human IL-21 (human) (UniProt Q9HBE4); experiment: capture ELISA, biotin-IL-21 at 33 nM
human IL-21 (human) [4] = biological target: human IL-21 (human) (UniProt Q9HBE4); experiment: capture ELISA, biotin-IL-21 at 1.2 nM
human IL-21 (human) [5] = biological target: human IL-21 (human) (UniProt Q9HBE4); experiment: capture ELISA, biotin-IL-21 at 0.14 nM
human IL-21 (human) [6] = biological target: human IL-21 (human) (UniProt Q9HBE4); experiment: capture ELISA, biotin-IL-21 at 11 nM
human IL-21 (human) [7] = biological target: human IL-21 (human) (UniProt Q9HBE4); experiment: capture ELISA, biotin-IL-21 at 0.05 nM
human IL-21 (human) [8] = biological target: human IL-21 (human) (UniProt Q9HBE4); experiment: capture ELISA, biotin-IL-21 at 3.7 nM
human IL-21 (human) [9] = biological target: human IL-21 (human) (UniProt Q9HBE4); experiment: capture ELISA, biotin-IL-21 at 0.41 nM

human IL-21 (human), sequence (Q9HBE4 32-162): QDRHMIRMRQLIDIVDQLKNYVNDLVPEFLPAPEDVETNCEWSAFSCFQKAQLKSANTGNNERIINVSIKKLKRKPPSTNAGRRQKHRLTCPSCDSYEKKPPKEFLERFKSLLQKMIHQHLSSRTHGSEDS
rabbit IL-21 (rabbit), sequence (chain, as listed by the source limits assumed): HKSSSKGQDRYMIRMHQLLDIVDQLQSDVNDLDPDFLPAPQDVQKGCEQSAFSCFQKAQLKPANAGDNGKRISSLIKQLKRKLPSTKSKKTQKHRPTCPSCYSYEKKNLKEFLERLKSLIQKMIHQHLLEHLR
cynomolgus monkey IL-21 (cynomolgus monkey), sequence (Q9HBE4 other isoform, or with tags, fused parts or gaps): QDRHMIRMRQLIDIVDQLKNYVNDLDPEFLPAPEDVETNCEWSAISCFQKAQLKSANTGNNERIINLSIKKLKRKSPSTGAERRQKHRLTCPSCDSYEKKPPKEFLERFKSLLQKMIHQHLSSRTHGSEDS

IC50, IM9 pan-STAT-luciferase reporter assay, IL-21 at 66.67 pM [1]: 3920 pM
IC50, IM9 pan-STAT-luciferase reporter assay, IL-21 at 66.67 pM (rabbit IL-21 (rabbit)): 321 pM
IC50, IM9 pan-STAT-luciferase reporter assay, IL-21 at 66.67 pM (mouse IL-21 (mouse)): 3530 pM
% of maximum IL-21-induced B cell proliferation at 0.1 nM inhibitor (SDEV 15.8) (human IL-21 (human) [2]): 83%
% of maximum IL-21-induced B cell proliferation at 0.21 nM inhibitor (SDEV 10.8) (human IL-21 (human) [2]): 99%
% of maximum IL-21-induced B cell proliferation at 0.42 nM inhibitor (SDEV 6.43) (human IL-21 (human) [2]): 87%
% of maximum IL-21-induced B cell proliferation at 0.83 nM inhibitor (SDEV 6.33) (human IL-21 (human) [2]): 109%
% of maximum IL-21-induced B cell proliferation at 1.67 nM inhibitor (SDEV 12.6) (human IL-21 (human) [2]): 90%
% of maximum IL-21-induced B cell proliferation at 3.33 nM inhibitor (SDEV 13.7) (human IL-21 (human) [2]): 103%
% of maximum IL-21-induced B cell proliferation at 13.3 nM inhibitor (SDEV 13.8) (human IL-21 (human) [2]): 77%
% of maximum IL-21-induced B cell proliferation at 53.3 nM inhibitor (SDEV 6.2) (human IL-21 (human) [2]): 83%
IC50, IM9 pan-STAT-luciferase reporter assay, IL-21 at 66.67 pM (human IL-21 (human) [2]): 271 pM
Substance: human IL-21R:Fc chimera (R&D Systems, cat #991-R2) (from UniProt Q9HBE5 20-232) (Fc fusion)

OD at 560 nm (human IL-21 (human) [3]): 0.06 OD
OD at 560 nm (human IL-21 (human) [4]): 0.06 OD
OD at 560 nm (human IL-21 (human) [5]): 0.06 OD
OD at 560 nm (human IL-21 (human) [6]): 0.06 OD
OD at 560 nm (human IL-21 (human) [7]): 0.06 OD
OD at 560 nm (human IL-21 (human) [8]): 0.06 OD
% of maximum IL-21-induced B cell proliferation at 0.1 nM inhibitor (SDEV 5.34) (human IL-21 (human) [2]): 96%
% of maximum IL-21-induced B cell proliferation at 0.21 nM inhibitor (SDEV 10.3) (human IL-21 (human) [2]): 115%
% of maximum IL-21-induced B cell proliferation at 0.42 nM inhibitor (SDEV 17.1) (human IL-21 (human) [2]): 107%
% of maximum IL-21-induced B cell proliferation at 0.83 nM inhibitor (SDEV 15.3) (human IL-21 (human) [2]): 114%
% of maximum IL-21-induced B cell proliferation at 1.67 nM inhibitor (SDEV 4.78) (human IL-21 (human) [2]): 108%
% of maximum IL-21-induced B cell proliferation at 3.33 nM inhibitor (SDEV 18.7) (human IL-21 (human) [2]): 119%
% of maximum IL-21-induced B cell proliferation at 6.67 nM inhibitor (SDEV 17.9) (human IL-21 (human) [2]): 103%
% of maximum IL-21-induced B cell proliferation at 13.3 nM inhibitor (SDEV 6.21) (human IL-21 (human) [2]): 101%
% of maximum IL-21-induced B cell proliferation at 26.7 nM inhibitor (SDEV 11.2) (human IL-21 (human) [2]): 96%
fold increase of plasma cells (CD38 high, IgD low), donor 1, 26.7 nM antibody (IL-21 without antibody: 176) (human IL-21 (human) [2]): 174 fold
fold increase of plasma cells (CD38 high, IgD low), donor 2, 26.7 nM antibody (IL-21 without antibody: 114) (human IL-21 (human) [2]): 108 fold
fold increase of plasma cells (CD38 high, IgD low), donor 3, 26.7 nM antibody (IL-21 without antibody: 47) (human IL-21 (human) [2]): 47 fold
fold increase of plasma cells (CD38 high, IgD low), donor 4, 26.7 nM antibody (IL-21 without antibody: 68) (human IL-21 (human) [2]): 66 fold
fold increase of plasma cells (CD38 high, IgD low), donor 5, 26.7 nM antibody (IL-21 without antibody: 22) (human IL-21 (human) [2]): 23 fold
OD at 560 nm (human IL-21 (human) [9]): 0.06 OD
Substance: human IgG4 isotype control antibody
